The target in this assay is human CXCR4 (human) (UniProt P61073). Kind of assay: cell-based or functional assay.
Chain of UniProt P61073 (P61073 whole entry): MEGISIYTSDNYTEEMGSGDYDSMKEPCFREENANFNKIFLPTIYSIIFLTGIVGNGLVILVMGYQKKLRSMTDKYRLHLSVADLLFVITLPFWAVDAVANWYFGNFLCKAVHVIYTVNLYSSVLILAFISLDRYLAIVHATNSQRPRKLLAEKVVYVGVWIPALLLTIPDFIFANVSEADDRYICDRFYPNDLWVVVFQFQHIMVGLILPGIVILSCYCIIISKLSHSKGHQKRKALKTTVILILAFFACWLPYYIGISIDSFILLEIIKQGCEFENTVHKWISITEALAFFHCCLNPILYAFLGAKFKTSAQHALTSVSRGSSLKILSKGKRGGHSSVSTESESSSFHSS

Substance “FIV envelope protein (product of the env gene of FIV clone 34TF10, Petaluma strain) (from UniProt P16090 1-856)” displayed an infectivity of replication-competent 34TF10 on CRFK.CXCR4 against CRFK cells (focal infectivity assay) of 8 fold and a titer of FIV Env-enveloped CTRZLb vector on CRFK.CXCR4 cells (transducing units/ml) of 360.

The record behind these values is patent US6555107.
